For this assay, the target named is SARS-CoV-2 WT RBD protein (SARS-CoV-2, wild-type (ancestral)) (UniProt P0DTC2). As to the kind of experiment: SPR.

With P2C-1F11-I27F (antibody), the fold decrease of affinity against P2C-1F11 is > 7 fold.

The values above are taken from paper PMC9395280.
